Values quoted from earlier work, collected in article PMC5372734.
pKd: −log10 of the molar value. Read-outs that look alike come from different tables or passages of the source.

Key:
[1] = biological target: Factor XIIa (Homo sapiens) (UniProt P00748)
[2] = biological target: Factor XIIa (Homo sapiens) (UniProt P00748); remark: listed apart in the source

Chain of UniProt P00748 (P00748 whole entry, looked up): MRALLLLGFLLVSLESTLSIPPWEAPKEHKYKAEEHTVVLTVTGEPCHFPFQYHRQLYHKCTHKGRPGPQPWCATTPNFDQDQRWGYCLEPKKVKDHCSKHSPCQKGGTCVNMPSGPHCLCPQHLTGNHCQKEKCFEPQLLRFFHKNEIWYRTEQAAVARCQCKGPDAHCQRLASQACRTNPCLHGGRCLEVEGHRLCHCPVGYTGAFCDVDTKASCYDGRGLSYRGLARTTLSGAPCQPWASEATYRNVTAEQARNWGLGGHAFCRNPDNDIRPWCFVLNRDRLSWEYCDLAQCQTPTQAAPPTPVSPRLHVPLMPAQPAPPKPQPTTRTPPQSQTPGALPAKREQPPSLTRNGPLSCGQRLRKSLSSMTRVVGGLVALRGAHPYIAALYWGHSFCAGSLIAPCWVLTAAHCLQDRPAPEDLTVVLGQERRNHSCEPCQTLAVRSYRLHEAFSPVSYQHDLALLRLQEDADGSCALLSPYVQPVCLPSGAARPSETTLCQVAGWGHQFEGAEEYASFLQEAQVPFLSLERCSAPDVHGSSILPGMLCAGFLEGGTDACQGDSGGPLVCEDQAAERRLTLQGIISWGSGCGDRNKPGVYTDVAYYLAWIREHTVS

- pKd [1]: 11.05
- pKd [2]: 8.80
Substance: Histidine-rich glycoprotein (from UniProt P04196)
